According to patent US20240352113A1 (JIANGSU HENGRUI PHARMACEUTICALS, published 2024):

Experiments:
Assay in all cases: cell-based or functional assay
[1] = biological target: T1, human ANGPTL3(17-170)-Flag-His (human, UniProt Q9Y5C1 17-170)
T1 sequence: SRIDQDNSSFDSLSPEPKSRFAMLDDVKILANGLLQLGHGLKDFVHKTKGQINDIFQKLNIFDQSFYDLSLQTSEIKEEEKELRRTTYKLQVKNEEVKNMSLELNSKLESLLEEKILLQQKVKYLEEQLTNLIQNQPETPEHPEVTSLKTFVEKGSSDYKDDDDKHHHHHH

[2] = biological target: T2, mouse ANGPTL3(17-455)-His (mouse, UniProt Q9R182 17-455, biotin-labeled in the ELISA and HTRF assays (sites not given))
T2 sequence: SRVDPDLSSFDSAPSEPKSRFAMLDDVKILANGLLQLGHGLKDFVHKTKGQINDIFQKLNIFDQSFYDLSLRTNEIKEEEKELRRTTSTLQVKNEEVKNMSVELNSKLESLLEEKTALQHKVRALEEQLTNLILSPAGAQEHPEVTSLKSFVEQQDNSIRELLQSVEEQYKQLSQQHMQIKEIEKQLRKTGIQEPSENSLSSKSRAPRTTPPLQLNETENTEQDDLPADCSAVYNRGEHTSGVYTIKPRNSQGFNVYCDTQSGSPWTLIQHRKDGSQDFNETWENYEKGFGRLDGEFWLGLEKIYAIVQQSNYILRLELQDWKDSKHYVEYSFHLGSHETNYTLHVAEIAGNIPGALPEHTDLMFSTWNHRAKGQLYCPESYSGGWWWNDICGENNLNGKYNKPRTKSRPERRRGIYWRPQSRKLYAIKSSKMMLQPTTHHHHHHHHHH

[3] = biological target: T3, cynomolgus monkey ANGPTL3(17-460)-His (cynomolgus monkey, UniProt Q9Y5C1 17-460 (human entry), biotin-labeled in the ELISA and HTRF assays (sites not given))
T3 chain: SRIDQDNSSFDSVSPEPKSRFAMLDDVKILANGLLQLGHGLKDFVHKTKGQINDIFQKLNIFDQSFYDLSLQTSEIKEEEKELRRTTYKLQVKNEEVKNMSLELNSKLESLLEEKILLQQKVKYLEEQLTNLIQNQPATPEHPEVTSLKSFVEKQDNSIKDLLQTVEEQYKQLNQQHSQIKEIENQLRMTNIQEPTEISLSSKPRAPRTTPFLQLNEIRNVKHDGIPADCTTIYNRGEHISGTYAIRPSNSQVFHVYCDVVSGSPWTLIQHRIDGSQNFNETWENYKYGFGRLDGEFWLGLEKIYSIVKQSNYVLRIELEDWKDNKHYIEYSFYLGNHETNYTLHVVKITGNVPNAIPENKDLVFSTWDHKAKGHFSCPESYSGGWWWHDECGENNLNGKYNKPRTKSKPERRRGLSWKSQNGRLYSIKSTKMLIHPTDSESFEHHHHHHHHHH

[4] = biological target: T4, rat ANGPTL3(17-455)-His (rat, biotin-labeled in the ELISA and HTRF assays (sites not given))
T4 chain: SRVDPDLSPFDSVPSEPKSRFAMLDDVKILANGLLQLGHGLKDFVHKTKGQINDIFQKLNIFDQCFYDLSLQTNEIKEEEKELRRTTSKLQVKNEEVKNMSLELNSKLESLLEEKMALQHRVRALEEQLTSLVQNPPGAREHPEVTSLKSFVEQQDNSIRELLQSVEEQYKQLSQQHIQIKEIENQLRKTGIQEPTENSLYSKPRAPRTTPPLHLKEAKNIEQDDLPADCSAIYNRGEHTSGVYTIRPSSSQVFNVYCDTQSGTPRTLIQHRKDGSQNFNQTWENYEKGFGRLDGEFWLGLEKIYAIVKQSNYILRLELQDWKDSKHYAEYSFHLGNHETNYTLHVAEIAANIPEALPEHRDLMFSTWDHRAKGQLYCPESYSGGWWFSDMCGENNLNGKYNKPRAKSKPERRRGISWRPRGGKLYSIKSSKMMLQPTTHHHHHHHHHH

B1: P8BG (antibody, human IgG4 S228P, kappa, V domains shown)
VH: QVQLVQSGAEVKKPGASVKVSCKASGYTFTSYDINWVRQAPGQGLEWVGLINPREDSTSYAQKFQGRVTMTRDTSTSTMYMELSSLRSEDTAVYFCARDLGSIREVLYYGMDVWGQGTTVTVSS
VL: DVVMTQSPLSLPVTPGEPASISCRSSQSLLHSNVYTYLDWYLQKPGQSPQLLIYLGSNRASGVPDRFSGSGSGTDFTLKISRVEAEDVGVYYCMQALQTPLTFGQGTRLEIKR
- IC50 (nM), activity in blocking the inhibition of LPL by ANGPTL3 (bovine LPL enzyme activity assay) [1]: 75.3 nM
- IC50 (nM), activity in blocking the inhibition of LPL by ANGPTL3 (bovine LPL enzyme activity assay) [2]: 41.5 nM
- IC50 (nM), activity in blocking the inhibition of LPL by ANGPTL3 (bovine LPL enzyme activity assay) [3]: 53.6 nM
- IC50 (nM), activity in blocking the inhibition of LPL by ANGPTL3 (bovine LPL enzyme activity assay) [4]: 132 nM
